Results: patent US20250122539A1, “LARGE SCALE PRODUCTION OF DIVARIN, DIVARINIC ACID AND OTHER ALKYL RESORCINOLS BY FERMENTATION” (priority 2021, published 2025)

Tests used:
hexanoic acid = experiment: Two plasmid screening system for relative AAE activity, hexanoic acid feeding; type: cell-based, Saccharomyces cerevisiae; conditions: for Olivetol / Olivetolic acid: average production, LSC3-297/pLOA-049 plus AAE plasmid, Delft medium pH 6.5, 3.44 mM hexanoic acid, 48 hours
Text: (§1) In order to perform in vivo screening in Saccharomyces cerevisiae for acyl activating enzyme (AAE) variants with enhanced activity and/or expression, a two plasmid screening system was employed to generate an artificial bottleneck in AAE activity. This bottleneck was generated by natural copy number variation of the two plasmids, with a multi-copy 2 micron episomal plasmid, pLOA-049, harboring an olivetol synthase homologue from C. sativa (CsTKS) fused with a T2A self-cleaving peptide (Kearsey et al., FEBS J. 287:1511-1524, 2020) to a gene encoding olivetol acid cyclase from C. sativa (CsOAC), and a lower copy centromeric plasmid with an autonomous replicating sequence (CEN/ARS) harboring different acyl activating enzymes/acyl-CoA synthetases from different organisms. Markers employed on the 2 micron plasmid were orotidine-5′-phosphate decarboxylase from S. cerevisiae (URA3) and on the CEN/ARS plasmid, the multifunctional histidine biosynthesis gene HIS4 from S. cerevisiae. The cassette architecture in the plasmids was based on integrated cassettes in production strain LSC3-2, with a pGAL1-10 bidirectional promoter driving expression of CsTKS and CsOAC from pGAL1 with a S. cerevisiae CYC1 terminator, and insulated downstream of pGAL10 by a S. cerevisiae GRE3 terminator. Likewise on the CEN/ARS plasmid, a bidirectional pGAL1-10 promoter drives expression of CsAAE1 from pGAL10 with a S. cerevisiae GRE3 terminator, and is insulated downstream of pGAL1 by a S. cerevisiae CYC1 terminator.
(§2) To screen activity of AAE variants, first a CEN/ARS containing plasmid expressing AAEs co-transformed with the 2 micron plasmid expressing CsTKS translationally fused to CsOAC via the T2A self-cleaving peptide into strain LSC3-297 using the transformation method described by Gietz and Schiestl (Nat. Protocols 2:31-34, 2007). Double plasmid transformants were selected on YNB agar with 2% (w/v) glucose and CSM minus histidine and minus uracil (CSM-His-Ura, Sunrise Science Products) and grown in a 30° C. incubator for approximately 48 hours or at room temperature for approximately 72 hours. Individual colonies were picked into wells of 96 deepwell plates containing 0.3 mL per well of Delft medium with 2% (w/v) glucose and 0.75 g/L CSM-His-Ura. Delft medium base contains (per liter solution) 7.5 g ammonium sulfate, 14.4 g potassium phosphate monobasic (added from a 1 M stock solution adjusted to pH 6.5 with sodium hydroxide), 0.5 g magnesium sulfate heptahydrate, 3.6 mL of a trace metal solution (consisting of 130 g/L citric acid monohydrate, 0.574 g/L copper (II) sulfate pentahydrate, 8.07 g/L iron (III) chloride hexahydrate, 0.5 g/L boric acid, 0.333 g/L manganese (II) chloride, 0.2 g/L sodium molybdate, and 4.67 g/L zinc sulfate heptahydrate), and 1.0 ml of a vitamin solution (0.008 g/L biotin, 1.6 g/L calcium pantothenate, 0.008 g/L folic acid, 8 g/L myo-inositol, 1.6 g/L nicotinic acid, 0.8 g/L p-aminobenzoic acid, 1.6 g/L pyridoxal hydrochloride, 0.8 g/L riboflavin, 1.6 g/L thiamine hydrochloride, adjusted to pH […] with sodium hydroxide). Plates were grown for 16-24 hours at 30° C. in a plate shaker incubator maintained at 80% relative humidity and 900 rpm shaking (3 mm diameter throw). Ten microliters of preculture was then used to inoculate wells of 96 deepwell plates containing 0.3 mL per well of Delft medium with 2% (w/v) glucose, 0.75 g/L CSM-His-Ura, either 9.08 mM butyric acid or 3.44 mM hexanoic acid, and for divarin/divarinic acid, additionally 150 mM 2-(N-morpholino) ethanesulfonic acid (MES) at pH 5.5 and with the additional modification of the 1 M potassium phosphate monobasic stock in the Delft medium base also adjusted to pH 5.5 (for olivetol/olivetolic acid production from hexanoic acid, no MES was added and potassium phosphate monobasic solution used in the Delft medium base was at pH 6.5). […]

butyric acid = experiment: Two plasmid screening system for relative AAE activity, butyric acid feeding; type: cell-based, Saccharomyces cerevisiae; conditions: for Divarin / Divarinic acid: average production, LSC3-297/pLOA-049 plus AAE plasmid, Delft medium pH 5.5 with 150 mM MES, 9.08 mM butyric acid, 48 hours
Text: as §1, §2

B1: CsAAE1: Cannabis sativa acyl activating enzyme 1 (SEQ ID NO: 4), codon-optimized for S. cerevisiae, on plasmid pLOA-059 (protein, listed as Cannabis sativa)
chain: MGKNYKSLDSVVASDFIALGITSEVAETLHGRLAEIVCNYGAATPQTWINIANHILSPDLPFSLHQMLFYGCYKDFGPAPPAWIPDPEKVKSTNLGALLEKRGKEFLGVKYKDPISSFSHFQEFSVRNPEVYWRTVLMDEMKISFSKDPECILRRDDINNPGGSEWLPGGYLNSAKNCLNVNSNKKLNDTMIVWRDEGNDDLPLNKLTLDQLRKRVWLVGYALEEMGLEKGCAIAIDMPMHVDAVVIYLAIVLAGYVVVSIADSFSAPEISTRLRLSKAKAIFTQDHIIRGKKRIPLYSRVVEAKSPMAIVIPCSGSNIGAELRDGDISWDYFLERAKEFKNCEFTAREQPVDAYTNILFSSGTTGEPKAIPWTQATPLKAAADGWSHLDIRKGDVIVWPTNLGWMMGPWLVYASLLNGASIALYNGSPLVSGFAKFVQDAKVTMLGVVPSIVRSWKSTNCVSGYDWSTIRCFSSSGEASNVDEYLWLMGRANYKPVIEMCGGTEIGGAFSAGSFLQAQSLSSFSSQCMGCTLYILDKNGYPMPKNKPGIGELALGPVMFGASKTLLNGNHHDVYFKGMPTLNGEVLRRHGDIFELTSNGYYHAHGRADDTMNIGGIKISSIEIERVCNEVDDRVFETTAIGVPPLGGGPEQLVIFFVLKDSNDTTIDLNQLRLSFNLGLQKKLNPLFKVTRVVPLSSLPRTATNKIMRRVLRQQFSHFE
Which Olivetol (hexanoic acid) does the source give for B1 here?
The Olivetol was 2.61 mg/L.

What about the Olivetolic acid (hexanoic acid) of the same molecule?
The Olivetolic acid was 2.99 mg/L.

What about the “activity as a hexanoyl-CoA synthetase for olivetol and olivetolic acid production” value (hexanoic acid; out of the tested AAE sequences) of the same molecule?
Its value is “highest activity”.

And the Divarin (butyric acid)?
The Divarin was 1.58 mg/L.

What about the Divarinic acid (butyric acid) of the same molecule?
The Divarinic acid was 1.51 mg/L.

B2: AtAAE7: acyl activating enzyme 7 from Arabidopsis thaliana (Uniprot Q8VZF1), C-terminal peroxisomal targeting sequence removed, SEQ ID NO: 9 (protein, listed as Arabidopsis thaliana)
chain: MAATKWRDIDDLPKIPANYTALTPLWFLDRAAVVHPTRKSVIHGSREYTWRQTYDRCRRLASALADRSIGPGSTVAIIAPNIPAMYEAHFGVPMCGAVLNCVNIRLNAPTVAFLLSHSQSSVIMVDQEFFTLAEDSLRLMEEKAGSSFKRPLLIVIGDHTCAPESLNRALSKGAIEYEDFLATGDPNYPWQPPADEWQSIALGYTSGTTASPKGVVLHHRGAYIMALSNPLIWGMQDGAVYLWTLPMFHCNGWCFPWSLAVLSGTSICLRQVTAKEVYSMIAKYKVTHFCAAPVVLNAIVNAPKEDTILPLPHTVHVMTAGAAPPPSVLFSMNQKGFRVAHTYGLSETYGPSTVCAWKPEWDSLPPETQAKLNARQGVRYTGMEQLDVIDTQTGKPVPADGKTAGEIVFRGNMVMKGYLKNPEANKETFAGGWFHSGDIAVKHPDNYIEIKDRSKDVIISGGENISSVEVENVVYHHPAVLEASVVARPDERWQESPCAFVTLKSDYEKHDQNKLAQDIMKFCREKLPAYWVPKSVVFGPLPKTATGKIQKHILRTKAKEMGPVPR
Which results are given for B2?
Olivetol (hexanoic acid): 0.74 mg/L; Olivetolic acid (hexanoic acid): 1.60 mg/L; Divarin (butyric acid): 7.18 mg/L; Divarinic acid (butyric acid): 5.63 mg/L; activity as butyryl-CoA synthetases for divarin and divarinic acid production (butyric acid; over CsAAE1): several-fold activity improvements
